Assay [1] deals with T1, Mig (CXCL9) (UniProt Q07325 23-125).
T1 construct: Bought chemokine
T1 sequence (looked up): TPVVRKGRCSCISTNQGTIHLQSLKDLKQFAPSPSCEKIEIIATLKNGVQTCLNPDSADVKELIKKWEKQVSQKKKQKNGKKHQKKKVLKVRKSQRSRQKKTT
The assay can be described thus: micro-array, phage-presented peptide on printed CK. A digest of the protocol:
(§1)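 Chemokine was printed at 25 and 50 μg/ml onto protein microarray slides, with BSA and M13 phage controls, then blocked 1 h at room temperature.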

A further assay has as its target T2, IP-10 (CXCL10) (UniProt P02778 22-98).
T2 construct: Bought chemokine
T2 sequence (looked up): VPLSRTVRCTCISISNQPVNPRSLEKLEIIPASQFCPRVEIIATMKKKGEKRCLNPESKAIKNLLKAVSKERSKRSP
Description: micro-array, phage-presented peptide on printed CK. Summed up:
as §1

The target of assay [2] is T3, I-TAC (CXCL11) (UniProt O14625 22-94).
T3 construct: Bought chemokine; also called I-TACK
T3 sequence (looked up): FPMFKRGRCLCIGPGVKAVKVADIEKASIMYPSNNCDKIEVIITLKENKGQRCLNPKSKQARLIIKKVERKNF
Description: micro-array, phage-presented peptide on printed CK. A digest of the protocol: as §1

Assay [3] addresses T4, I-309 (CCL1) (UniProt P22362 23-96, limits assumed).
T4 construct: Bought chemokine
T4 sequence (looked up): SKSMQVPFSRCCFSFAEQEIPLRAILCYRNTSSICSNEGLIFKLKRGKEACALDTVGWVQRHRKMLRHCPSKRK
Description: micro-array, phage-presented peptide on printed CK. Summed up: as §1

Assay [4] has as its target T5, MCP-1 (CCL2) (UniProt P13500 24-99).
T5 construct: Bought chemokine
The assay can be described thus: micro-array, phage-presented peptide on printed CK. Summed up:
as §1

In another assay the target is T6, MCP-2 (CCL8) (UniProt P80075 24-99).
T6 construct: Bought chemokine
T6 sequence (looked up): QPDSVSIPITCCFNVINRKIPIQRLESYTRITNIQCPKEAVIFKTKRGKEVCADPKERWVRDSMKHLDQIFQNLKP
Description: micro-array, phage-presented peptide on printed CK. A digest of the protocol:
as §1

The target of assay [5] is T7, MCP-4 (CCL13) (UniProt Q99616 24-98).
T7 construct: Bought chemokine
T7 sequence (Q99616 24-98 limits assumed): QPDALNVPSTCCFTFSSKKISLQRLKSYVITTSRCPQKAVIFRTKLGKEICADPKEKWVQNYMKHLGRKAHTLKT
The assay can be described thus: micro-array, phage-presented peptide on printed CK. Summed up: as §1

The target in assay [6] is T8, Eotaxin (CCL11) (UniProt P51671 24-97).
T8 construct: Bought chemokine
T8 sequence (P51671 24-97 limits assumed): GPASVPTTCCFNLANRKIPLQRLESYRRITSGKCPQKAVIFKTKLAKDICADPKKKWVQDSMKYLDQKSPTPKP
Description: micro-array, phage-presented peptide on printed CK. A digest of the protocol: as §1

Assay [7] has as its target T9, Eotaxin 2 (CCL24) (UniProt O00175 27-104, limits assumed).
T9 construct: Bought chemokine
T9 sequence (looked up): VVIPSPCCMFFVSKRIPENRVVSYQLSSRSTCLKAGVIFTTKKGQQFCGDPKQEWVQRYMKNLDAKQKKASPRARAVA
The assay can be described thus: micro-array, phage-presented peptide on printed CK. A digest of the protocol: as §1

Assay [8] addresses T10, Eotaxin 3 (CCL26) (UniProt Q9Y258 24-94).
T10 construct: Bought chemokine
T10 sequence (looked up): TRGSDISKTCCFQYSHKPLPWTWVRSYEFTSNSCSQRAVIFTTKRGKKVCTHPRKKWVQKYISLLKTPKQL
Description: micro-array, phage-presented peptide on printed CK. A digest of the protocol:
as §1

Another assay deals with T11, MDC(69aa) (CCL22) (UniProt O00626 25-93).
T11 construct: Bought chemokine
T11 sequence (looked up): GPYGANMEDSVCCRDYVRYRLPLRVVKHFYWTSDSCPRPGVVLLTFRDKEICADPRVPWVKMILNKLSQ
Description: micro-array, phage-presented peptide on printed CK. Summed up: as §1

The target of assay [9] is T12, SDF-1α (CXCL12) (UniProt P48061-2 22-89).
T12 construct: Alpha isoform of CXCL12; also called SDFα
T12 sequence (P48061 22-89 limits assumed): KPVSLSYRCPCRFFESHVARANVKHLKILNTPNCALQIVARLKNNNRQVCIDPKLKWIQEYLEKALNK
The assay can be described thus: micro-array, phage-presented peptide on printed CK. Summed up: as §1

For assay [10], the target named is T13, SDF-1β (CXCL12) (UniProt P48061 22-93).
T13 construct: Beta isoform of CXCL12; also called SDFβ
T13 sequence (P48061 22-93 limits assumed): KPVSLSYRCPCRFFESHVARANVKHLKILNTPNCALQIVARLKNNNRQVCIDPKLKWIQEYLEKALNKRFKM
Description: micro-array, phage-presented peptide on printed CK. Summed up: as §1

For assay [11], the target named is T14, BCA-1 (CXCL13) (UniProt O43927 23-109).
T14 construct: Bought chemokine
T14 sequence (looked up): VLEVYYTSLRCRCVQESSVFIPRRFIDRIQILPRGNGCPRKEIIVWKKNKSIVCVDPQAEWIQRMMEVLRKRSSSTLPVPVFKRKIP
Description: micro-array, phage-presented peptide on printed CK. A digest of the protocol:
as §1

Assay [12] deals with T15, MIP-3α (CCL20) (UniProt P78556 27-96).
T15 construct: Bought chemokine
T15 sequence (P78556 27-96 limits assumed): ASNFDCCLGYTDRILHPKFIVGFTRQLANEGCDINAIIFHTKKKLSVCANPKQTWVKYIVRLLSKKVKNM
The assay can be described thus: micro-array, phage-presented peptide on printed CK. Summed up: as §1

Assay [13] addresses T16, Exodus-2 (CCL21) (UniProt O00585 24-134).
T16 construct: Bought chemokine
T16 sequence (looked up): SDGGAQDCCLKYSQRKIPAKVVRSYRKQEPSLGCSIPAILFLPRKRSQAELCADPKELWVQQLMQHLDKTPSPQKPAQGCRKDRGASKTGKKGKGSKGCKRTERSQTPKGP
Description: micro-array, phage-presented peptide on printed CK. A digest of the protocol:
as §1

The target in assay [14] is T17, TECK (CCL25) (UniProt O15444 24-150).
T17 construct: Bought chemokine
T17 sequence (looked up): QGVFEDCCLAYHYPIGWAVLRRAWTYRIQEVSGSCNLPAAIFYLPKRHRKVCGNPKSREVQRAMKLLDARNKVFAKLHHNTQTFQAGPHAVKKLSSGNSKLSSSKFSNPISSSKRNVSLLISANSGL
The assay can be described thus: micro-array, phage-presented peptide on printed CK. A digest of the protocol: as §1

Another assay addresses T18, CTAC (CCL27) (UniProt Q9Y4X3 25-112).
T18 construct: Bought chemokine
T18 sequence (looked up): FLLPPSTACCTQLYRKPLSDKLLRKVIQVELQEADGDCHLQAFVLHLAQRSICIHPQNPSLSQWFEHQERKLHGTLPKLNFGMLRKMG
Description: micro-array, phage-presented peptide on printed CK. A digest of the protocol: as §1

Assay [15] deals with T19, Lymphotactin (XCL-1) (UniProt P47992 23-114, limits assumed).
T19 construct: Bought chemokine
T19 sequence (looked up): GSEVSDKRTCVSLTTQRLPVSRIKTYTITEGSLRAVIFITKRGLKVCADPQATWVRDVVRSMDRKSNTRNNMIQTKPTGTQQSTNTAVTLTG
Description: micro-array, phage-presented peptide on printed CK. Summed up: as §1

The next assay addresses T20, GRO-β (CXCL2) (UniProt P19875 35-107).
T20 construct: Bought chemokine
T20 sequence (looked up): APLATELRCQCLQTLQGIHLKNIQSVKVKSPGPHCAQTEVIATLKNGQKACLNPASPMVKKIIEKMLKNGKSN
The assay can be described thus: micro-array, biotinylated peptide on printed CK.

In assay [16] the target is T3, I-TAC (CXCL11). The assay can be described thus: micro-array, biotinylated peptide on printed CK.
Assay [17] addresses T4, I-309 (CCL1). The assay can be described thus: micro-array, biotinylated peptide on printed CK.
Assay [18] deals with T5, MCP-1 (CCL2). The assay can be described thus: micro-array, biotinylated peptide on printed CK.
In assay [19] the target is T8, Eotaxin (CCL11). The assay can be described thus: micro-array, biotinylated peptide on printed CK.
For assay [20], the target named is T9, Eotaxin 2 (CCL24). The assay can be described thus: micro-array, biotinylated peptide on printed CK.
Assay [21] deals with T10, Eotaxin 3 (CCL26). Description: micro-array, biotinylated peptide on printed CK.
Assay [22] concerns the target T12, SDF-1α (CXCL12). The assay can be described thus: micro-array, biotinylated peptide on printed CK.
Assay [23] addresses T13, SDF-1β (CXCL12). The assay can be described thus: micro-array, biotinylated peptide on printed CK.
In assay [24] the target is T14, BCA-1 (CXCL13). The assay can be described thus: micro-array, biotinylated peptide on printed CK.
Assay [25] deals with T17, TECK (CCL25). Description: micro-array, biotinylated peptide on printed CK.
Assay [26] addresses T19, Lymphotactin (XCL-1). Description: micro-array, biotinylated peptide on printed CK.
Assay [27] concerns the target T1, Mig (CXCL9). Description: micro-array, biotinylated peptide on printed CK.
The target of assay [28] is T7, MCP-4 (CCL13). Description: micro-array, biotinylated peptide on printed CK.
The next assay concerns the target T21, RANTES (CCL5) (UniProt P13501 24-91).
T21 construct: Bought chemokine
T21 sequence (looked up): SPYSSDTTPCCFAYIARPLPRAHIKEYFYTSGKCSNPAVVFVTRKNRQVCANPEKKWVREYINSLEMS
Description: micro-array, biotinylated peptide on printed CK.

Assay [29] concerns the target T15, MIP-3α (CCL20). Description: micro-array, biotinylated peptide on printed CK.
The target in assay [30] is T16, Exodus-2 (CCL21). The assay can be described thus: micro-array, biotinylated peptide on printed CK.
The next assay deals with T22, IL-8 (CXCL8) (UniProt P10145 28-99, limits assumed).
T22 construct: also called IL-8(72aa); IL-8(77aa)
T22 sequence (looked up): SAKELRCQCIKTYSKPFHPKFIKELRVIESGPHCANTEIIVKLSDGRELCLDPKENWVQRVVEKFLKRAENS
The assay can be described thus: SPR, ProteOn XPR36, GLM chip. As for the experimental part: (§2) Surface Plasmon Resonance (SPR): SPR was performed to make a quantitative determination of CK-peptide affinity. SPR measures the apparent equilibrium dissociation constant (KD) of the CK-binding peptide in the CK-peptide complex. KD is the ratio of the rate constants, Kd (1/s) and Kₐ (1/Ms), Kd/Kₐ. SPR was done with the ProteOn XPR36-Protein Interaction Array System (BioRad, Israel) with the Sensor Chip, GLM (sensor range 12-15 K response units).
(§3) Summary of Results: Affinity of Chemokine—Peptide Inteaction. […] The affinity with which peptides interact with CKs is relevant for low affinity reagents that are intended to engage multiple disease-related target proteins. SPR analysis was employed to determine the apparent equilibrium dissociation constants (KD) of CK-peptide complexes. […] Peptide binding in the micro-milli molar range is low affinity interaction. SPR analysis also corroborated differential binding measurements made by the micro-array analysis (FIG. 25b).

The target in assay [31] is T1, Mig (CXCL9). The assay can be described thus: SPR, ProteOn XPR36, GLM chip. As for the experimental part: as §2, §3
In general terms: SPR reads the build-up and loss of mass on a sensor chip optically.

The text below walks through data of US20100227824A1 (SYMTHERA CANADA, published 2010).

Ends that are not written are not given here. * marks the point of attachment. Biotin = O=C1N[C@H]2[C@H](CS[C@H]2CCCCC(=O)*)N1

T5 sequence (P13500 24-99 limits assumed): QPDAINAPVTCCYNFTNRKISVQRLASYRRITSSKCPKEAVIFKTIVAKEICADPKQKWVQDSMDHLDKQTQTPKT

With WVFGAAMCK [Phage-Presented Peptide 8.8 (Ph-p8.8)], the binding result with Mig (CXCL9) [1], with IP-10 (CXCL10), with I-TAC (CXCL11) [2], with I-309 (CCL1) [3], in the assay with Eotaxin (CCL11) [6] and in the assay with Eotaxin 2 (CCL24) [7] was “binds” in each case. The binding result with Eotaxin 3 (CCL26) [8], with MDC(69aa) (CCL22), with SDF-1α (CXCL12) [9], in the assay with SDF-1β (CXCL12) [10], in the assay with BCA-1 (CXCL13) [11] and in the assay with MIP-3α (CCL20) [12] was “binds” throughout. Also, the binding result with Exodus-2 (CCL21) [13], in the assay with TECK (CCL25) [14], in the assay with CTAC (CCL27) and in the assay with Lymphotactin (XCL-1) [15] was “binds” throughout. The “Relative Fluorescence Units (RFU)” value with MCP-1 (CCL2) [4], in the assay with MCP-2 (CCL8) and with MCP-4 (CCL13) [5] was more than 15000 RFU throughout.
Biotin-FFGLNNC [Chemokine Binding Peptide 10 (CBP10)]: the binding result in the assay with GRO-β (CXCL2), with I-TAC (CXCL11) [16], with I-309 (CCL1) [17], with Eotaxin (CCL11) [19], with Eotaxin 2 (CCL24) [20] and with Eotaxin 3 (CCL26) [21] was “binds” throughout. In addition, the binding result in the assay with SDF-1α (CXCL12) [22], with SDF-1β (CXCL12) [23], in the assay with BCA-1 (CXCL13) [24], with TECK (CCL25) [25] and with Lymphotactin (XCL-1) [26] was “binds” in each case. Moreover, the “Relative Fluorescence Units (RFU)” value with MCP-1 (CCL2) [18] was more than 600 RFU.

B1: Chemokine Binding Peptide 5 (CBP5) (peptide)
peptide: Biotin-LFGNDCE
notes: Synthetic biotinylated peptide, not phage-presented
For B1, the binding result in the assay with Mig (CXCL9) [27], in the assay with I-309 (CCL1) [17], in the assay with MCP-1 (CCL2) [18], with SDF-1α (CXCL12) [22], with SDF-1β (CXCL12) [23] and with MIP-3α (CCL20) [29] was “binds” each time. In addition, the binding result with Exodus-2 (CCL21) [30] and in the assay with TECK (CCL25) [25] was “binds” throughout. Moreover, the “Relative Fluorescence Units (RFU)” value in the assay with MCP-4 (CCL13) [28], with RANTES (CCL5), with Eotaxin (CCL11) [19] and in the assay with Eotaxin 3 (CCL26) [21] was more than 2500 RFU throughout.
In the case of VTTFFDYDYGAPC (Peptide used in SPR; also called CB6R2) [CBP6 (VTTFFDYDYGAPC, from the N-terminal of CCR2)], the results for the Kd with IL-8 (CXCL8) and in the assay with Mig (CXCL9) [31] were 1060 µM and 28.2 µM, respectively.

As usually defined, the Kd is the concentration at which binding is half-saturated. Low values mean tighter binding, high ones weaker binding.
